Laboratory results reported in IntAct's records for PubMed 11163211.

B1: G2/mitotic-specific cyclin cig2 (Schizosaccharomyces pombe (strain ATCC 38366 / 972)), P36630 (parent)
chain: MALYSISKPVGSKINKHSYQDENTLVGKQALSKGTEKTKLSTNFEINLPRRTVLSDVSNVGKNNADEKDTKKAKRSFDESNLSTNEEADKPVESKFVKKLKVYSKNADPSVETLQKDRVSNVDDHLSSNPLMAEEYAPEIFEYIRKLDLKCLPNPKYMDQQKELTWKMREILNEWLVEIHSNFCLMPETLYLAVNIIDRFLSRRSCSLSKFQLTGITALLIASKYEEVMCPSIQNFVYMTDGAFTVEDVCVAERYMLNVLNFDLSYPSPLNFLRKISQAEGYDAQTRTLGKYLTEIYLFDHDLLRYPMSKIAAAAMYLSRRLLRRGPWTPKLVESSGGYEEHELKEIAYIMLHYHNKPLEHKAFFQKYSSKRFLKASIFVHQLVRQRYSVNRTDDDDLQSEPSSSLTNDGH

Variants of: B1
Conditions: with cdk1_schpo cdc2, P04551
cdk1_schpo cdc2, P04551, sequence (P04551 whole entry): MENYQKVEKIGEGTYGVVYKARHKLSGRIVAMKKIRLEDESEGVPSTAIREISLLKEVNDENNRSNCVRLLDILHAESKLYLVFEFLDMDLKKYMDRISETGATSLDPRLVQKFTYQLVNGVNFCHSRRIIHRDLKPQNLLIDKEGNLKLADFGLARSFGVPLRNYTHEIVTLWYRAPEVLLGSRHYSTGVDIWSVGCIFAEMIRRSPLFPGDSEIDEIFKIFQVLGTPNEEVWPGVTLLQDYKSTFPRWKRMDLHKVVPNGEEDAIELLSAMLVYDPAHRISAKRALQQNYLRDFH

effect of a mutation on the interaction	Variant
disrupting interaction	R169A;E170A;I171A
